From IntAct's records for PubMed 23023224

B1: Unconventional myosin-VI (Homo sapiens), Q9UM54 (parent)
chain: MEDGKPVWAPHPTDGFQMGNIVDIGPDSLTIEPLNQKGKTFLALINQVFPAEEDSKKDVEDNCSLMYLNEATLLHNIKVRYSKDRIYTYVANILIAVNPYFDIPKIYSSEAIKSYQGKSLGTRPPHVFAIADKAFRDMKVLKMSQSIIVSGESGAGKTENTKFVLRYLTESYGTGQDIDDRIVEANPLLEAFGNAKTVRNNNSSRFGKFVEIHFNEKSSVVGGFVSHYLLEKSRICVQGKEERNYHIFYRLCAGASEDIREKLHLSSPDNFRYLNRGCTRYFANKETDKQILQNRKSPEYLKAGSMKDPLLDDHGDFIRMCTAMKKIGLDDEEKLDLFRVVAGVLHLGNIDFEEAGSTSGGCNLKNKSAQSLEYCAELLGLDQDDLRVSLTTRVMLTTAGGTKGTVIKVPLKVEQANNARDALAKTVYSHLFDHVVNRVNQCFPFETSSYFIGVLDIAGFEYFEHNSFEQFCINYCNEKLQQFFNERILKEEQELYQKEGLGVNEVHYVDNQDCIDLIEAKLVGILDILDEENRLPQPSDQHFTSAVHQKHKDHFRLTIPRKSKLAVHRNIRDDEGFIIRHFAGAVCYETTQFVEKNNDALHMSLESLICESRDKFIRELFESSTNNNKDTKQKAGKLSFISVGNKFKTQLNLLLDKLRSTGASFIRCIKPNLKMTSHHFEGAQILSQLQCSGMVSVLDLMQGGYPSRASFHELYNMYKKYMPDKLARLDPRLFCKALFKALGLNENDYKFGLTKVFFRPGKFAEFDQIMKSDPDHLAELVKRVNHWLTCSRWKKVQWCSLSVIKLKNKIKYRAEACIKMQKTIRMWLCKRRHKPRIDGLVKVGTLKKRLDKFNEVVSVLKDGKPEMNKQIKNLEISIDTLMAKIKSTMMTQEQIQKEYDALVKSSEELLSALQKKKQQEEEAERLRRIQEEMEKERKRREEDEKRRRKEEEERRMKLEMEAKRKQEEEERKKREDDEKRIQAEVEAQLARQKEEESQQQAVLEQERRDRELALRIAQSEAELISDEAQADLALRRSLDSYPVSKNDGTRPKMTPEQMAKEMSEFLSRGPAVLATKAAAGTKKYDLSKWKYAELRDTINTSCDIELLAACREEFHRRLKVYHAWKSKNKKRNTETEQRAPKSVTDYDFAPFLNNSPQQNPAAQIPARQREIEMNRQQRFFRIPFIRPADQYKDPQSKKKGWWYAHFDGPWIARQMELHPDKPPILLVAGKDDMEMCELNLEETGLTRKRGAEILPRQFEEIWERCGGIQYLQNAIESRQARPTYATAMLQSLLK
B2: Unconventional myosin-VI (Homo sapiens), Q9UM54 (parent)
chain: B1 chain
partner: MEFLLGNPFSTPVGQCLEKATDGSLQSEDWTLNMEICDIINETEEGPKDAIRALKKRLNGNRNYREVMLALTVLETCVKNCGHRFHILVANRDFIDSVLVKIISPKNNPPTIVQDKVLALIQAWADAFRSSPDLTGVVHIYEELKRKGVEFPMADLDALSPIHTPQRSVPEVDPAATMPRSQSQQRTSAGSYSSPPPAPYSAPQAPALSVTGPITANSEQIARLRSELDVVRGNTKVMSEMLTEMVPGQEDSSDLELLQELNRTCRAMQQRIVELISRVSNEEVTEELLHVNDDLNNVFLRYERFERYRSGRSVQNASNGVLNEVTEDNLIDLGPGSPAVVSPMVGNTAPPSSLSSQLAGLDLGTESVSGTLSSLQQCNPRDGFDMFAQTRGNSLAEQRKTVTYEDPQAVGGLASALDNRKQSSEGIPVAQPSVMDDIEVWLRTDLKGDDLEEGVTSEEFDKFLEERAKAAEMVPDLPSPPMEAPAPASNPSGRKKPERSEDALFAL

Variants of: B1
Settings: with TOM1, O60784-1
TOM1, O60784-1, sequence (O60784 whole entry): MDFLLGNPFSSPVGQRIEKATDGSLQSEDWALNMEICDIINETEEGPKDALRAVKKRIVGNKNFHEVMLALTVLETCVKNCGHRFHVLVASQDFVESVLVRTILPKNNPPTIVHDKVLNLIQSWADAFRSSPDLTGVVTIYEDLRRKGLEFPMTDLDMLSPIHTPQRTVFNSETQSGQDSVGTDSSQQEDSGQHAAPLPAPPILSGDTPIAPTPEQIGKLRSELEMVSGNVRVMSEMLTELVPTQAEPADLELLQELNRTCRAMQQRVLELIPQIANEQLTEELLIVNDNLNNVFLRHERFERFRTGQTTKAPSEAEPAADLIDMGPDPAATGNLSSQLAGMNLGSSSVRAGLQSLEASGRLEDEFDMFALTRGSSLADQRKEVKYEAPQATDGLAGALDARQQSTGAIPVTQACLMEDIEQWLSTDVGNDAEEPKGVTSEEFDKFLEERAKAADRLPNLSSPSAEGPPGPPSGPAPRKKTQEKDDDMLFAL

effect of a mutation on the interaction	Variant
disrupting interaction strength	W1202L

Variants of: B2
Settings: with tm1l2_human TOM1L2, Q6ZVM7

effect of a mutation on the interaction	Variant
disrupting interaction strength	W1202L
